Square brackets hold non-standard residues; d marks the D form. Aib = CC(C)(N)C(=O)O
T1: human GLP-2 receptor (hGLP2-R) (human, UniProt O95838)
T1 sequence: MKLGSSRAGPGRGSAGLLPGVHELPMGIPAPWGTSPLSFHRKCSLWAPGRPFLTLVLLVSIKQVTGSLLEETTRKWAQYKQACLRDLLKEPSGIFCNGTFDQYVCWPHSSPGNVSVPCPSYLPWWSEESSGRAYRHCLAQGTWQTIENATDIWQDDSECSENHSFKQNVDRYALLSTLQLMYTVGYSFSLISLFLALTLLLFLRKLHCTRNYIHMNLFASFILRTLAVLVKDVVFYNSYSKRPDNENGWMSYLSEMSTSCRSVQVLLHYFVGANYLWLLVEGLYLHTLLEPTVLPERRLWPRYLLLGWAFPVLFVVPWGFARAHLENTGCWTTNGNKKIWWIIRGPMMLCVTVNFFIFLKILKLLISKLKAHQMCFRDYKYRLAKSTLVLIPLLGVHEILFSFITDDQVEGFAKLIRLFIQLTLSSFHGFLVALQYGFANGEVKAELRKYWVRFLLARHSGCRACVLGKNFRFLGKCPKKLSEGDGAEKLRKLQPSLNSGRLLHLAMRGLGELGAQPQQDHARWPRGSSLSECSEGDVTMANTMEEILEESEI


How the values were obtained:
[1] = target: T1, human GLP-2 receptor (hGLP2-R); test: cell-based or functional assay
[2] = target: human glucagon-like peptide 1 receptor (GLP-1R) (human, UniProt P43220); test: cell-based or functional assay

| Binder | EC50 GLP-2 (nM); cAMP AlphaScreen [1] | EC50 GLP-1 (nM); cAMP AlphaScreen [2] |
| --- | --- | --- |
| H-H[Aib]EGTFTSELATILDEQAARDFINWLIAHKITD-OH (SMILES CC[C@H](C)[C@H](NC(=O)[C@H](CC(C)C)NC(=O)[C@H](Cc1c[nH]c2ccccc12)NC(=O)[C@H](CC(N)=O)NC(=O)[C@@H](NC(=O)[C@H](Cc1ccccc1)NC(=O)[C@H](CC(=O)O)NC(=O)[C@H](CCCNC(=N)N)NC(=O)[C@H](C)NC(=O)[C@H](C)NC(=O)[C@H](CCC(N)=O)NC(=O)[C@H](CCC(=O)O)NC(=O)[C@H](CC(=O)O)NC(=O)[C@H](CC(C)C)NC(=O)[C@@H](NC(=O)[C@@H](NC(=O)[C@H](C)NC(=O)[C@H](CC(C)C)NC(=O)[C@H](CCC(=O)O)NC(=O)[C@H](CO)NC(=O)[C@@H](NC(=O)[C@H](Cc1ccccc1)NC(=O)[C@@H](NC(=O)CNC(=O)[C@H](CCC(=O)O)NC(=O)C(C)(C)NC(=O)[C@@H](N)Cc1c[nH]cn1)[C@@H](C)O)[C@@H](C)O)[C@@H](C)O)[C@@H](C)CC)[C@@H](C)CC)C(=O)N[C@@H](C)C(=O)N[C@@H](Cc1c[nH]cn1)C(=O)N[C@@H](CCCCN)C(=O)N[C@H](C(=O)N[C@H](C(=O)N[C@@H](CC(=O)O)C(=O)O)[C@@H](C)O)[C@@H](C)CC) [Compound 33] | 0.041 nM | 0.004 nM |
| H-H[Aib]EGTFSSELATILDGKAARDFIAWLIAHKITD-OH (SMILES CC[C@H](C)[C@H](NC(=O)[C@H](CC(C)C)NC(=O)[C@H](Cc1c[nH]c2ccccc12)NC(=O)[C@H](C)NC(=O)[C@@H](NC(=O)[C@H](Cc1ccccc1)NC(=O)[C@H](CC(=O)O)NC(=O)[C@H](CCCNC(=N)N)NC(=O)[C@H](C)NC(=O)[C@H](C)NC(=O)[C@H](CCCCN)NC(=O)CNC(=O)[C@H](CC(=O)O)NC(=O)[C@H](CC(C)C)NC(=O)[C@@H](NC(=O)[C@@H](NC(=O)[C@H](C)NC(=O)[C@H](CC(C)C)NC(=O)[C@H](CCC(=O)O)NC(=O)[C@H](CO)NC(=O)[C@H](CO)NC(=O)[C@H](Cc1ccccc1)NC(=O)[C@@H](NC(=O)CNC(=O)[C@H](CCC(=O)O)NC(=O)C(C)(C)NC(=O)[C@@H](N)Cc1c[nH]cn1)[C@@H](C)O)[C@@H](C)O)[C@@H](C)CC)[C@@H](C)CC)C(=O)N[C@@H](C)C(=O)N[C@@H](Cc1c[nH]cn1)C(=O)N[C@@H](CCCCN)C(=O)N[C@H](C(=O)N[C@H](C(=O)N[C@@H](CC(=O)O)C(=O)O)[C@@H](C)O)[C@@H](C)CC) [Compound 32] | 0.15 nM | 0.038 nM |
| H-H[Aib]EGTFSSELATILDEQAARDFIAWLIAHKITD-OH (SMILES CC[C@H](C)[C@H](NC(=O)[C@H](CC(C)C)NC(=O)[C@H](Cc1c[nH]c2ccccc12)NC(=O)[C@H](C)NC(=O)[C@@H](NC(=O)[C@H](Cc1ccccc1)NC(=O)[C@H](CC(=O)O)NC(=O)[C@H](CCCNC(=N)N)NC(=O)[C@H](C)NC(=O)[C@H](C)NC(=O)[C@H](CCC(N)=O)NC(=O)[C@H](CCC(=O)O)NC(=O)[C@H](CC(=O)O)NC(=O)[C@H](CC(C)C)NC(=O)[C@@H](NC(=O)[C@@H](NC(=O)[C@H](C)NC(=O)[C@H](CC(C)C)NC(=O)[C@H](CCC(=O)O)NC(=O)[C@H](CO)NC(=O)[C@H](CO)NC(=O)[C@H](Cc1ccccc1)NC(=O)[C@@H](NC(=O)CNC(=O)[C@H](CCC(=O)O)NC(=O)C(C)(C)NC(=O)[C@@H](N)Cc1c[nH]cn1)[C@@H](C)O)[C@@H](C)O)[C@@H](C)CC)[C@@H](C)CC)C(=O)N[C@@H](C)C(=O)N[C@@H](Cc1c[nH]cn1)C(=O)N[C@@H](CCCCN)C(=O)N[C@H](C(=O)N[C@H](C(=O)N[C@@H](CC(=O)O)C(=O)O)[C@@H](C)O)[C@@H](C)CC) [Compound 2] | 0.034 nM | 0.046 nM |

Source: US11130793B2, “GLP-1/GLP-2 dual agonists” (Zealand Pharma A/S, priority 2016, dated 2021)
